US20200087367A1 (ACCELERON PHARMA, published 2020)

Tests used:
[1] = biological target: T1, hENG(458-581)-hFc (human, UniProt P17813 458-581); experiment: SPR, captured hENG-hFc, soluble BMP10; '-' = Binding undetectable
T1 construct: Expressed in COS cells, not purified; not shown: linker and human IgG1 Fc domain
T1 sequence: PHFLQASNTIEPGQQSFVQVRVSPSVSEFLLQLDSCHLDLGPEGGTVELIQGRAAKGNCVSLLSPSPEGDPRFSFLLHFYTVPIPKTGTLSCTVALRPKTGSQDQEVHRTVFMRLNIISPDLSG
Experimental: (§1) SPR methodology was used to screen these hENG-hFc protein variants for high-affinity binding to human BMP9 and BMP10. In these experiments, captured hENG-hFc proteins were exposed to soluble BMP9 or BMP10 at 100 nM each.

[2] = biological target: T2, hENG(458-586)-hFc (human, UniProt P17813 458-586); experiment: as above
T2 construct: Expressed in COS cells, not purified; not shown: linker and human IgG1 Fc domain
T2 sequence: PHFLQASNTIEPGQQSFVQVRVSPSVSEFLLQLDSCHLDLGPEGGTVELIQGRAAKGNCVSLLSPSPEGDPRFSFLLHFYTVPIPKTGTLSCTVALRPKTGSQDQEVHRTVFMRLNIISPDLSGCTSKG
Experimental: as §1

[3] = biological target: T3, hENG(166-346)-hFc (human, UniProt P17813 166-346); experiment: as above
T3 construct: HEK 293, purified; not shown: linker and human IgG1 Fc domain
T3 sequence: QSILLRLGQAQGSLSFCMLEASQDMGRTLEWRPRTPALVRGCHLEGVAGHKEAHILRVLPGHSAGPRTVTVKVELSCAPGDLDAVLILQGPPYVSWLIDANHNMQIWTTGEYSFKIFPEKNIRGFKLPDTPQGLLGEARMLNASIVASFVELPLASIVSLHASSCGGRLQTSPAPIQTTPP
Experimental: as §1

[4] = biological target: T4, hENG(133-346)-hFc (human, UniProt P17813 133-346); experiment: as above
T4 construct: HEK 293, purified; not shown: linker and human IgG1 Fc domain
T4 sequence: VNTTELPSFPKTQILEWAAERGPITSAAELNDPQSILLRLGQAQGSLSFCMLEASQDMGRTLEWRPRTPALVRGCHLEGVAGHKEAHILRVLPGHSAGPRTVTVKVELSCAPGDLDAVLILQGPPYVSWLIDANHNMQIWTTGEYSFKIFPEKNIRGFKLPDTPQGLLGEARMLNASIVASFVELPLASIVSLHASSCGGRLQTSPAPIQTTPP
Experimental: as §1

[5] = biological target: T5, hENG(360-586)-hFc (human, UniProt P17813 360-586); experiment: SPR, captured hENG-hFc, soluble BMP9; '-' = Binding undetectable
T5 construct: HEK 293, purified; not shown: linker and human IgG1 Fc domain
T5 sequence: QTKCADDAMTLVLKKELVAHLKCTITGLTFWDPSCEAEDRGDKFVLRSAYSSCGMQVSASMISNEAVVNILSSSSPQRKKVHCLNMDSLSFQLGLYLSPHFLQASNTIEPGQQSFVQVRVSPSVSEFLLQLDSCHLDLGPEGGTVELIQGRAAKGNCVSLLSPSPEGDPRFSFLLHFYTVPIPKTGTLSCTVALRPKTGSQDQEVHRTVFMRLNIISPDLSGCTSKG
Experimental: as §1

[6] = biological target: T1, hENG(458-581)-hFc; experiment: as above
Experimental: as §1

[7] = biological target: T6, hENG(438-586)-hFc (human, UniProt P17813 438-586); experiment: as above
T6 construct: HEK 293, purified; not shown: linker and human IgG1 Fc domain
T6 sequence: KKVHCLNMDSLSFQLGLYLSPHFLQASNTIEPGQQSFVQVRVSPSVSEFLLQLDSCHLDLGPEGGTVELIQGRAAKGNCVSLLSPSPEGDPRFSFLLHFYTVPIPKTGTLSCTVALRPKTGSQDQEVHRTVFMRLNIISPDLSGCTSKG
Experimental: as §1

[8] = biological target: T7, hENG(360-581)-hFc (human, UniProt P17813 360-581); experiment: as above
T7 construct: HEK 293, purified; not shown: linker and human IgG1 Fc domain
T7 sequence: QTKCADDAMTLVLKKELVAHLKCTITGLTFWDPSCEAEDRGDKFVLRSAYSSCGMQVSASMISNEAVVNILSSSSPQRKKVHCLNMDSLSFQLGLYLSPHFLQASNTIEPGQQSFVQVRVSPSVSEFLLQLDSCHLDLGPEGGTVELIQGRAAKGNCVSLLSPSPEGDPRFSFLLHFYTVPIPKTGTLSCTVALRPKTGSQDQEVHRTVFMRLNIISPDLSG
Experimental: as §1

[9] = biological target: T3, hENG(166-346)-hFc; experiment: as above
Experimental: as §1

[10] = biological target: T8, hENG(26-332)-hFc (human, UniProt P17813 26-332); experiment: as above
T8 construct: HEK 293, purified; not shown: linker and human IgG1 Fc domain
T8 sequence: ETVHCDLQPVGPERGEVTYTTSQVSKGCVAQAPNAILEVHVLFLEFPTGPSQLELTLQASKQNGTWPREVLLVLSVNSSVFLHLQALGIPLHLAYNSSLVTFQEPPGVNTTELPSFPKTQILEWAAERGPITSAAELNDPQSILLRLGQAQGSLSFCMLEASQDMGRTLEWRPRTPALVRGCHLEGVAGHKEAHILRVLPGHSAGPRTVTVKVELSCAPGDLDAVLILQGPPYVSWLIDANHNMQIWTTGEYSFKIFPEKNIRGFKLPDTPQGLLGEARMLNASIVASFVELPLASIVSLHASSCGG
Experimental: as §1

[11] = biological target: T9, hENG(61-346)-hFc (human, UniProt P17813 61-346); experiment: as above
T9 construct: HEK 293, purified; not shown: linker and human IgG1 Fc domain
T9 sequence: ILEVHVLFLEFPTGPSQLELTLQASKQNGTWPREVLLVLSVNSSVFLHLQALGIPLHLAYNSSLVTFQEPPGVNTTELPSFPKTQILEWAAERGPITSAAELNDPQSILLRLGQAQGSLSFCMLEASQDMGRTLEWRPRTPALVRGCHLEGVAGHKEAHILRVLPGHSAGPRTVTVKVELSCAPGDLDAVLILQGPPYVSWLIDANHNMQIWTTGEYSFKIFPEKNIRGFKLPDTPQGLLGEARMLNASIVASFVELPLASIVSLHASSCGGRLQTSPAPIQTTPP
Experimental: as §1

Measured: binding result

B1: BMP10 (ligand)
chain: NAKGNYCKRTPLYIDFKEIGWDSWIIAPPGYEAYECRGVCNYPLAEHLTPTKHAIIQALVHLKNSQKASKACCVPTKLEPISILYLDKGVVTYKFKYEGMAVSECGCR
notes: also called hBMP-10; hBMP10
no binding (tested: 100 nM): [1] | [2] | [3] | [4]

B2: BMP9 (ligand, human, UniProt Q9UK05 320-429, looked up)
chain: SAGAGSHCQKTSLRVNFEDIGWDSWIIAPKEYEAYECKGGCFFPLADDVTPTKHAIVQTLVHLKFPTKVGKACCVPTKLSPISVLYKDDMGVPTLKYHYEGMSVAECGCR
notes: also called hBMP-9; hBMP9
not listed: [1] | [2] | [3] | [4]
no binding (tested: 100 nM): all other assays above
